Sequences and labels used below:
B1: human PTPδ Ig1-3(+/+) (domain or fragment)
chain: ETPPRFTRTPVDQTGVSGGVASFICQATGDPRPKIVWNKKGKKVSNQRFEVIEFDDGSGSVLRIQPLRTPRDEAIYECVASNNVGEISVSTRLTVLREDQIPRGFPTIDMGPQLKVVERTRTATMLCAASGNPDPEITWFKDFLPVDTSNNNGRIKQLRSESIGGTPIRGALQIEQSEESDQGKYECVATNSAGTRYSAPANLYVRELREVRRVPPRFSIPPTNHEIMPGGSVNITCVAVGSPMPYVKWMLGAEDLTPEDDMPIGRNVLELNDVRQSANYTCVAMSTLGVIEAIAQIT
notes: receptor-type tyrosine-protein phosphatase delta (PTPδ), human, Ig-like domains 1-3, splice form with the MeA and MeB inserts (+/+); In the functional rows the Fc-fused form (Fc not cleaved) was used; also called PTPδ Ig1-3 MeA+MeB+; LAR-RPTP (PTPδ); source: High Five insect cells (baculovirus), secreted, purified (IgG Sepharose or protein A Sepharose, thrombin, Superdex 200)
B2: human IL1RAPL1 Ig1-3 (domain or fragment)
chain: SADGCTDWSIDIKKYQVLVGEPVRIKCALFYGYIRTNYSLAQSAGLSLMWYKSSGPGDFEEPIAFDGSRMSKEEDSIWFRPTLLQDSGLYACVIRNSTYCMKVSISLTVGENDTGLCYNSKMKYFEKAELSKSKEISCRDIEDFLLPTREPEILWYKECRTKTWRPSIVFKRDTLLIREVREDDIGNYTCELKYGGFVVRRTTELTVTAPLTDKPPKLLYPMESKLTIQETQLGDSANLTCRAFFGYSGDVSPLIYWMKGEKFIEDLDENRVWESDIRILKEHLGEQEVSISLIVDSVEEGDLGNYSCYVENGNGRRHASVLL
modifications: glycans (NAG2-BMA-MAN) attached to N138
notes: IL-1 receptor accessory protein-like 1 (IL1RAPL1), human, Ig-like domains 1-3 of the extracellular part; In the functional row the Fc-fused form (Fc not cleaved) was used; also called IL-1 receptor accessory protein-like 1; IL1RAPL1 Ig1-3-Fc / IL1RAPL1-Fc (Fc kept, in the clustering assays only); source: High Five insect cells (baculovirus), secreted, purified (IgG Sepharose or protein A …)

The data set “human IL1RAPL1 Ig1-3” addresses B2. As to the kind of experiment: crystal structure; PTPδ Ig1-3(+/+) mixed with IL1RAPL1 Ig1-3 at 1:1, complex isolated by gel filtration; sitting drop, 296 K, 100 mM Tris-HCl pH 7.5, 200 mM zinc acetate, 10% PEG8K; space group P3_(2)12; 3.08 Å. To be noted: both partners purified. For orientation: In gel filtration, larger molecules generally elute earlier.

Data set [1] deals with the molecule itself. Described as above.

Results on two molecules are retold here after publication PMC5645493, “LAR-RPTP Clustering Is Modulated by Competitive Binding between Synaptic Adhesion Partners and Heparan Sulfate” (Frontiers in Molecular Neuroscience, 2017).

As for B1, the binding result (with human IL1RAPL1 Ig1-3; in data set [1]) was “binds” throughout.
With B2, in data set [1], the binding result is given as “binds”.
